{"source": "patent US20180009908", "proteins": {"B1": {"name": "matuzumab HC_7.8.60_A + matuzumab LC (IgG1) (protein)", "chain 1": "QVQLVQSGAEVKKPGASVKVSCKASGYTFTSHWMHWVRYAPGQGLEWIGEFNPSNGRTNYNEKFKSKATMTVDTSTNTAYMELSSLRSEDTAVYYCASRDYDYDGRYFDYWGRGTLVTVSSASTKGPSVFPLAPCSKSTSGGTAALGCLVKDYFPEPVTVSWNSGALTSGVHTFPAVLQSSGLYSLSSVVTVPSSSLGTQTYICNVNHKPSNTKVDKKVEPDSGDKTHTCPPCPAPELLGGPSVFLFPPKPKDTLMISRTPEVTCVVVDVSHEDPEVKFNWYVDGVEVHNAKTKPREEQYNSTYRVVSVLTVLHQDWLNGKEYKCKVSNKALPAPIEKTISKAKGQPREPQVYTLPPSREEMTDNQVSLTCLVKGFYPSDIAVEWESNGQPENNYKTTPPVLMSDGSFFLASKLTVDKSRWQQGNVFSCSVMHEALHNHYTQKSLSLSPGK", "chain 2": "DIQMTQSPSSLSASVGDRVTITCSASSSVTYMYWYQRKPGDAPKLLIYDTSNLASGVPSRFSGSGSGTDYTFTISSLQPEDIATYYCQQWSSHIFTFGQGTKVEIKRTVAAPSVFIFPPSKEQLKSGTASVVCLLNNFYPREAKVQWKVDNALQSGNSQESVTEQDSKDSTYSLSSTLTLSKADYEKHKVYACEVTHQGLSSPVTKSFNRGEC"}, "B2": {"name": "MetMAb HC_7.8.60_B + MetMAb LC (IgG1) (protein)", "chain 1": "EVQLVESGGGLVQPGGSLRLSCAASGYTFTSYWLHWVRKAPGKGLEWVGMIDPSNSDTRFNPEFKDRFTISADTSKNTAYLQMNSLRAEDTAVYYCATYRSYVTPLDYWGQGTLVTVSSASTKGPSVFPLAPSSKSTSGGTAALGCLVKDYFPEPVTVSWNSGALTSGVATGPAVLQSSGLYSLSSVVTVPSSSLGTQTYICNVNHKPSNTKVDKKVEPKSCDKTHTCPPCPAPELLGGPSVFLFPPKPKDTLMISRTPEVTCVVVDVSHEDPEVKFNWYVDGVEVHNAKTKPREEQYQSTYRVVSVLTVLHQDWLNGKEYKCKVSNKALPAPIEKTISKAKGQPRRPRVYTLPPSREEMTKNQVSLVCLVKGFYPSDIAVEWESNGQPENNYKTTPPVLDSDGSFFLYSVLTVDKSRWQQGNVFSCSVMHEALHNHYTQKSLSLSPGK", "chain 2": "RIQMTQSPSSLSASVGDRVTITCKSSQSLLYTSSQKNYLAWYQDKPGKAPKLLIYWASTRESGVPSRFSGSGSGTDFTLTISSLQPEDFATYYCQQYYAYPWTFGQGTKVEIKGQPKAAPSVTLFPPSSEELQANKATLVCYISDFYPGAVTVAWKADSSPVKAGVETTTPSKQSNNKYAAWSYLSLTPEQWKSHRSYSCQVTHEGSTVEKTVAPTEC"}}, "key": {"[1]": {"experiment": "LCMS, IgG1 BsAb co-expression; HCB (matuzumab) homodimer species"}, "[2]": {"biological_target": "matuzumab HC_7.8.60_A + matuzumab LC (IgG1)", "experiment": "LCMS, IgG1 BsAb co-expression in HEK293F"}, "[3]": {"experiment": "LCMS, IgG1 BsAb co-expression; HCA (MetMAb) homodimer species"}, "[4]": {"biological_target": "matuzumab HC_7.8.60_A + matuzumab LC (IgG1)", "experiment": "LCMS, IgG1 BsAb co-expression; HCA/HCB heterodimer carrying two LC1"}, "[5]": {"biological_target": "matuzumab HC_7.8.60_A + matuzumab LC (IgG1)", "experiment": "LCMS, IgG1 BsAb co-expression; HCA/HCB heterodimer carrying two LC2"}}, "data": [{"protein": "B1", "values": [{"measurement": "% BB Homodimer (incorrect assembly)", "setting": "[1]", "value": 0, "unit": "%"}]}, {"protein": "B2", "values": [{"measurement": "% AB (LC1/LC2) (correct IgG BsAb assembly)", "setting": "[2]", "value": 90.8, "unit": "%"}, {"measurement": "% AA Homodimer (incorrect assembly)", "setting": "[3]", "value": 0, "unit": "%"}, {"measurement": "% AB (2x LC1) (incorrect assembly)", "setting": "[4]", "value": 9.2, "unit": "%"}, {"measurement": "% AB (2x LC2) (incorrect assembly)", "setting": "[5]", "value": 0, "unit": "%"}]}]}
